Measurements published in the supplement of paper PMC10567573.

B1: RSPH3 (parent)
chain: MTVKPAKAASLARNLAKRRRTYLG
B2: TRIM35 (parent)
chain: DKELLCCSCQADPRHQGHRVQPVK

Variants of: B1
Test: protein stability index of a GFP-peptide fusion (GPS, HEK-293T) (PSI 1-6); higher = more stable
Settings: c terminus: a fixed tail appended
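Further: lentivirally expressed fusions sorted by FACS into six bins by GFP to DsRed ratio, PSI derived from sequencing read proportions per bin multiplied by bin number.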

Protein stability index: each site, then its substitutions
S10: V 3.34 | Y 2.03 | A 2.86 | W 2.47 | M 2.02 | K 2.1 | C 2.01 | G 2.88 | H 3.28 | R 3.92 | I 2.55 | T 3.41 | E 2.74 | F 2.35 | D 2.96 | P 3.1 | N 2.99 | L 3.35
K7: Y 2.23 | E 3.59 | H 3.82 | Q 3.88 | N 3.21 | F 2.2 | W 3.15 | S 2.66 | G 3.13 | A 3.46 | P 3.18 | T 3.06 | I 2.46 | R 2.96 | V 2.44 | C 2.56 | M 2.93 | L 3.62 | D 3.25
M1: W 2.31 | A 3.34 | E 2.46 | H 3.45 | K 2.33 | I 2.15 | Q 3.95 | P 3 | C 2.71 | N 3.88 | L 3.36 | F 2.35 | G 3.28 | S 3.02 | Y 2.55 | D 2.85
A6: F 3.04 | V 2.89 | Y 2.93 | P 3.92 | Q 3.58 | N 2.88 | D 1.79 | M 2.27 | E 3.24 | G 3.13 | K 2.67 | W 1.91 | R 2.19 | C 2.72 | L 1.63 | S 3 | T 2.99 | I 2.43 | H 3.38
L11: F 2.19 | E 4.03 | I 2.61 | M 3.16 | K 3.15 | H 3.66 | G 3 | A 4 | C 2.54 | D 3.46
V3: M 2.31 | E 3.22 | A 2.85 | L 2.75 | Y 2.68 | D 3.02 | S 2.62 | I 3.59 | H 3.23 | T 3.5 | K 3.29 | F 3.79 | R 2.98 | C 3.73 | N 3.22
A8: K 3.23 | D 3.43 | N 2.58 | H 2.68 | V 2.57 | Y 2.04 | P 2.04 | R 2.3 | W 2.46 | M 2.62 | E 3.25 | T 2.87 | F 2.03 | C 2.52 | L 2.65 | I 2.17 | Q 2.5 | G 2.4 | S 2.55
P5: W 2.48 | A 2.93 | D 3.8 | S 2.56 | C 2.05 | E 2.52 | L 3.36 | R 2.48 | Y 2.14 | K 2.92 | N 3.24 | T 3.29 | G 2.75 | Q 2.63 | I 1.73 | F 1.52 | H 2.91 | M 2.92 | V 2.69
K4: I 1.87 | M 3.46 | H 3.7 | L 2.13 | P 2.94 | A 2 | Q 3.95 | F 2.34 | S 3.36 | D 2.97 | C 2.8 | T 3.38 | E 2.1 | V 2.6 | N 2.69 | W 2.25 | Y 2.58
A9: S 2.95 | L 1.79 | M 2.2 | R 2.42 | Y 3.04 | W 1.9 | C 2.73 | F 2.62 | I 1.79 | T 3.11 | H 3.37 | K 2.64 | V 3.28 | D 2.9 | P 3.03 | Q 2.77 | E 3.65 | G 2.71 | N 3.58
T2: W 1.58 | S 2.96 | A 2.69 | P 3.41 | C 2.16 | H 3.44 | V 2.5 | K 2.81 | Q 2.61 | R 2.74 | Y 2.36 | F 1.95 | L 2.17 | E 2.98 | D 2.88 | M 2.34 | I 2.45 | G 3.28 | N 3.75

Variants of: B2
Test: as above
Settings: c terminus: a fixed tail appended

Protein stability index, by site and new letter:
C9: H 4.1 | Y 4.52 | R 4.42 | A 3.85 | S 4.47 | V 3.27 | K 4.64 | P 4.89 | D 5.29
Q10: M 3.27 | L 2.85 | Y 3.49 | H 3.79 | S 2.89 | D 4.1 | I 3.87
H15: E 3.56 | A 3.48 | V 2.95 | K 3.44 | S 3.78 | Y 3 | G 3.15 | W 3.33 | P 3.54 | M 2.96
D1: W 1.87 | Q 3.59 | H 3.02 | M 3.67
C7: H 4.03 | Y 3.83 | V 3.87 | D 4.67 | Q 4.5
K24: A 2.87 | D 4.05 | T 3.31 | H 3.38
E3: A 2.92 | L 2.11 | C 2.26 | R 2.81 | V 2.45
C6: W 2.29 | F 2.99
S8: E 4.61 | P 3.59 | D 4.28 | L 2.98 | Y 2.97 | F 2.24
L5: W 3.18 | E 4.08 | I 3.76
R14: H 3.69 | M 3.97 | N 4.13 | L 3.43 | G 3.03 | I 4.18 | K 3.37 | P 4.18 | Q 3.75
V20: Y 3.04 | N 4.13
V23: L 4.02 | W 2.19 | C 4 | P 4.06 | D 4.19 | G 3.87
Q21: K 3.74 | S 3.96 | M 3.68 | P 3.56 | W 2.52 | Y 2.91
K2: R 3.12 | A 3.54 | D 3.46 | T 3.79 | E 4.01 | F 2.63 | Y 3.2
R19: A 3.62 | Y 3.16 | K 3.56 | W 2.78
L4: V 4.33 | I 2.52 | S 3.8 | F 3.31 | Q 4.36 | H 4.08 | P 3.85
G17: K 3.99 | Q 3.59 | V 3.08 | W 2.67 | L 3.35 | R 3.84 | D 3.88 | A 3.19 | P 3.12
P13: V 2.8 | S 1.97 | M 2.71 | I 3.69 | C 4.78 | R 3.41
H18: S 4.38 | W 4.14 | D 3.91 | T 3.88
Q16: T 3.23 | N 3.33 | Y 2.57 | K 3.96 | H 3.58 | R 3.34 | M 2.66 | E 3.87
P22: R 3.4 | Y 2.92 | Q 4.04 | C 4.52 | H 3.31 | T 4.03 | A 3.97
D12: C 4.09 | P 2.78 | A 3.52 | K 3.81 | G 3.13
A11: E 3.26 | H 3.29 | S 3.67 | R 3.85 | I 3.52 | T 4.25 | K 4.3 | G 3.95 | Y 2.93
